Results reported in patent publication US20200017592A1 (Regeneron, published 2020).
Substitutions are numbered along the chain they refer to.

T1: full-length human IL-36R on cells (human, UniProt Q9HB29 20-575)
T1 sequence (looked up): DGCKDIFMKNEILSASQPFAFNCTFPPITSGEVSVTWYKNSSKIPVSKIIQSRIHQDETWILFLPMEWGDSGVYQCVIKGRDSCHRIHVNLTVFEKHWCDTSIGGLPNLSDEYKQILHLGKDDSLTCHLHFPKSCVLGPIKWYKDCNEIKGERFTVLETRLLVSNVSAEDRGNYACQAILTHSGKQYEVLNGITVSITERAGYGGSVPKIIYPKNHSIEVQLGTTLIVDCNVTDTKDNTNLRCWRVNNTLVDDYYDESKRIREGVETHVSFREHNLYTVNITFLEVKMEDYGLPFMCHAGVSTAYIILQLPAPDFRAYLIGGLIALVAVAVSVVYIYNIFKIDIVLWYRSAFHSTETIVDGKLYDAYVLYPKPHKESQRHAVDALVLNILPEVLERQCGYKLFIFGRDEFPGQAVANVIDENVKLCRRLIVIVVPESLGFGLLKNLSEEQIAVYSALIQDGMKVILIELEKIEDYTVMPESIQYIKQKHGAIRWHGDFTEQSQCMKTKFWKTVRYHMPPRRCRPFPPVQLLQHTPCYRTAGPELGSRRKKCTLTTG

T2: Macaca fascicularis IL-36R on cells (Macaca fascicularis, UniProt A0A2K5WSK9 20-558)
T2 sequence: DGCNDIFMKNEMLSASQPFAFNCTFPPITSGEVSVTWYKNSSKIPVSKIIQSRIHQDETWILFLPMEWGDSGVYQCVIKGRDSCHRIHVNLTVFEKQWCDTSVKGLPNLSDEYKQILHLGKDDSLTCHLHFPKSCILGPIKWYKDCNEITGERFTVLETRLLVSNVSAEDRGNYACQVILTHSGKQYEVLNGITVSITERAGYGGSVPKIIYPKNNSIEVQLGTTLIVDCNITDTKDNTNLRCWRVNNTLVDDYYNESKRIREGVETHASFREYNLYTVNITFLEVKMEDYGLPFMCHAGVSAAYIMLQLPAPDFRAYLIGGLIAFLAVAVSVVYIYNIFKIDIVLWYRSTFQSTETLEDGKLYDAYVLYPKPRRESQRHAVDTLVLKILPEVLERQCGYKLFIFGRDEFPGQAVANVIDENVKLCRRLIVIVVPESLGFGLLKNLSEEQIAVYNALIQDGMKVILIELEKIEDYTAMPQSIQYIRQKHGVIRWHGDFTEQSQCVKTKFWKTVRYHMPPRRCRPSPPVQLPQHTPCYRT

B1: H4H14699P2 (antibody, human IgG4 S228P, kappa, V domains shown)
VH: EVQLVESGGGLVQPGRSLRLSCAASGFTFDDYAIHWVRQAPGKGLEWVSVISWNSDIIGYADSVKGRFTVSRDNAKNSLYLQMNSLRTEDTALYYCAKGYNWNFFDYWGQGTLVTVSS
VL: EIVLTQSPATLSLSPGERATLSCRASQSVSSYLAWYQQKPGQAPRLLIYNAANRATDIPARFSGSGSGTDFTLTISSLEPEDFAVYYCQQRSNWPLTFGGGTKVEIKR
notes: Fully human anti-IL-36R antibody
B2: H4H14700P2 (antibody, human IgG4 S228P, kappa, V domains shown)
VH: B1 VH with I34M, A40T, I57V, G59A, A61S, V70I, R87G, Y100H
VL: B1 VL with A51V, S77G, Y87F
B3: H4H14728P (antibody, human IgG4 S228P, kappa, V domains shown)
VH: QVQLQESGPGLVKPSQTLSLTCTVSGGSISSADYYWSWIRQHPGKGLEWIGSIYYTGSTYYNPSLKSRLTISIDTSENQFSLKLTSLTAADTAVYYCASEEANWGSHFDSWGQGTLVTVSS
VL: DIQMTQSPSSLSASVGDRVTITCRASQSIDNFLNWYQQKPGKAPKLLIYAASSLQSGVPSRFSGSGSGTDFTLTISSLQPEDFASYYCQHSHSAHPITFGQGTRLEIKR
B4: H4H14731P (antibody, human IgG4 S228P, kappa, V domains shown)
VH: QLQLQESGPGLVKPSETLSLTCTVSGGSISSSNYYWGWIRQPPGKRLEWIGSIYYSGSTYYNPSLKTRVTISVDTSKNQFSLKLTSVTAADTAVYYCAREEAAALTHFDFWGQGTLVTVSS
VL: B3 VL with D30S, F32Y, Y49F, S85T, A94S
B5: H4H14709P (antibody, human IgG4 S228P, kappa, V domains shown)
VH: EVQLVESGGGLVQPGGSLRLSCAASGFTFSDYAMSWVRQAPGKGLEWVSGISGNGGDTYYGDFVKGRFTISRDNSKNTLYLQMNSLRGEDTAAYFCVIDLDYWGQGTLVTVSS
VL: DIQMTQSPSTLSASEGDRVTITCRASQSISSWLAWYQQKPGKAPRLLIYKASILGDGVPSRFSGSGSGTEFTLTISSLQPDDFATYYCHQYNSYLWTFGQGTKVEIKR
B6: H4H14758P (antibody, human IgG4 S228P, kappa, V domains shown)
VH: EVQLVESGGGLVQPGRSLRLSCAASGFTFDDYAMHWVRQAPGKGLEWVSSVRWNGGIIGYADSVKGRFTISRDNAKNSLYLQMNSLRPEDTALYYCAKDIGDVLTGYYGEYGMDVWGQGTTVTVSS
VL: DIQMTQSPSSLSASVGDRVTIACRASQSITTYLNWYQQKPGKAPKLLIYAASSLQSGVPSRFSGSGSGTDFTLTISSLQPEDFATYYCQQSYISPYTFGQGTKLEIKR
B7: H4H14734P2 (antibody, human IgG4 S228P, kappa, V domains shown)
VH: EVQLVESGGGLVKPGGSLRLSCAASGFIFSNAWMNWVRQAPGKGLAWVGRIKTETDGGTTDYAAPVKGRFTISRDDSKNTLYLQMNSVKTEDTAVYYCTGGYSYGDDSSSWNEGYYYYGMDVWGQGTTVTVSS
VL: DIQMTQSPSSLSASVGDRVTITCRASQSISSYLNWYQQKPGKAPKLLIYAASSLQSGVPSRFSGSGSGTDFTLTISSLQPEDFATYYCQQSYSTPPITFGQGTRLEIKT

molecular target: T1, full-length human IL-36R on cells; test: cell-based or functional assay

Binder	IC50 [M], NFκB-luciferase, 10 pM hIL-36γ [M]	IC50 [M], NFκB-luciferase, 15 pM hIL-36β [M]	IC50 [M], NFκB-luciferase, 20 pM hIL-36α [M]	Max Inhibition (%), NFκB-luciferase, 10 pM hIL-36γ [%]	Max Inhibition (%), NFκB-luciferase, 15 pM hIL-36β [%]	Max Inhibition (%), NFκB-luciferase, 20 pM hIL-36α [%]
B1	1.4e-10	1.3e-10	1.3e-10	99	100	100
B2	1.2e-10	2e-10	1.9e-10	100	100	101
B3	1.2e-09	1.3e-09	9.7e-10	99	99	97
B4	7.3e-10	9.4e-10	7.8e-10	99	99	99
B5	1.3e-10	–	1.4e-10	24	–	22
B6	1.6e-10	–	1.2e-10	57	–	100

molecular target: T2, Macaca fascicularis IL-36R on cells; test: cell-based or functional assay

Binder	IC50 [M], NFκB-luciferase, 300 pM hIL-36γ [M]	IC50 [M], NFκB-luciferase, 500 pM hIL-36α [M]	IC50 [M], NFκB-luciferase, 600 pM hIL-36β [M]	Max Inhibition (%), NFκB-luciferase, 300 pM hIL-36γ [%]	Max Inhibition (%), NFκB-luciferase, 500 pM hIL-36α [%]	Max Inhibition (%), NFκB-luciferase, 600 pM hIL-36β [%]
B1	2e-10	8.4e-11	1.9e-10	97	97	98
B2	1.8e-10	1.2e-10	1.8e-10	99	99	99
B3	2e-09	1.3e-09	1.5e-09	93	93	95
B4	5.4e-09	3.1e-09	7.1e-09	75	84	78

molecular target: T3, recombinant human IL-36R extracellular domain expressed with a C-terminal myc-myc-hexahistidine tag (human, UniProt Q9HB29 20-337); test: SPR (Biacore 4000), mAb captured on anti-human Fc, 25°C
T3 construct: also called hIL-36R-MMH; hIL-36R.mmH
Protocol: (§1) Equilibrium dissociation constants (KD values) for IL-36R binding to purified anti-IL-36R antibodies were determined using a real-time surface plasmon resonance biosensor using a Biacore 4000 instrument. The Biacore sensor surface was first derivatized by amine coupling with a monoclonal mouse anti-human Fc antibody (GE, # BR-1008-39) to capture anti-IL-36R monoclonal antibodies. All binding studies were performed in 0.01 M Hepes pH 7.4, 0.15 M NaCl, 3 mM EDTA, and 0.05% v/v Surfactant Tween-20 (HBS-ET running buffer) at 25° C. and 37° C. Different concentrations of IL-36R reagents, human IL-36R extracellular domain expressed with a C-terminal myc-myc-hexahistidine tag (hIL-36R-MMH), Macaca fascicularis IL-36R extracellular domain expressed with a C-terminal myc-myc-hexahistidine tag (mfIL-36R-MMH: mROR1 signal sequence (M1-A29). Macaca fascicularis IL36R_ecto domain (D20-A336).mycmycHis6), human IL-36R extracellular domain expressed with a C-terminal mouse IgG2a Fc tag (hIL-36R-mFc: mROR1 signal sequence (M1-A29)-human IL36R (D20-Y337)-mouse IgG2aFc (E98-K330)) or an in-line fusion protein of human IL-36R extracellular domain and IL1RAcP extracellular domain expressed with mouse IgG2a Fc tag (hIL-36R-Trap-mFc: mROR1 signal sequence (M1-A29)-human IL36R ecto domain (D20-Y337)-human IL1RacP ecto domain(S21-E359)-mouse IgG2aFc) in HBS-ET running buffer (ranging from 100 nM to 3.7 nM, 3-fold dilutions) were injected over the anti-IL-36R antibody captured surface for 4 minutes at a flow rate of 30 μL/minute and their dissociation in HBS-ET running buffer was monitored for 10 minutes. Kinetic association rate constant (kₐ) and dissociation rate constant (kd) were determined by fitting the real-time sensorgrams to a 1:1 binding model using Scrubber 2.0c curve fitting software. Binding dissociation equilibrium constants (KD) and dissociative half-lives (t_{1/2}) were calculated from the kinetic rate constants as: […]

Binder	100 nM hIL-36R-MMH Bound (RU)	Kd [nM]	koff [s⁻¹]	kon [M⁻¹ s⁻¹]	t½ [min]
B1	74	10.2	0.00168	165000	7
B2	67	4.82	0.000579	120000	20
B3	69	7.87	0.000773	98300	15
B4	54	3.72	0.000343	92200	34
B5	64	4.09	0.000296	72300	39
B6	87	7.63	0.000923	121000	13
B7	22	12.2	0.000404	33200	29

molecular target: T3, recombinant human IL-36R extracellular …; test: SPR (Biacore 4000), mAb captured on anti-human Fc, 37°C
Protocol: as §1

Binder	100 nM hIL-36R-MMH Bound (RU)	Kd [nM]	koff [s⁻¹]	kon [M⁻¹ s⁻¹]	t½ [min]
B1	89	29.5	0.00418	142000	2.8
B2	89	10.5	0.00184	176000	6
B3	93	21.5	0.00293	136000	4
B4	81	7.11	0.000971	137000	12
B5	106	4.25	0.000554	131000	21
B6	111	15	0.00237	158000	5
B7	25	13.9	0.000749	53900	15
